Data set [1] has as its target S. cerevisiae Gpi8 (23-306aa) C85A (S. cerevisiae) (UniProt P49018). Description: SEC-MALS; C85A mutant under reducing conditions. (Size exclusion chromatography separates by hydrodynamic size, large species first.)
The target is the same in data set [2]. Put plainly: SEC; single purified protein on Superdex 200 10/300 GL, 20 mM Tris-HCl pH 8, 150 mM NaCl, purified without reducing agent (non-reducing) or with 2.5 mM DTT; re-runs of peaks; dimer to monomers.
In data set [3] the target is S. cerevisiae Gpi8 (23-337aa) (S. cerevisiae) (UniProt P49018). The description is as above.
Data set [4] concerns the molecule itself. The description is as above.

On to “S. cerevisiae Gpi8 (23-306aa) C85A (from UniProt P49018 23-306) (domain or fragment)”, for which the stoichiometry N in data set [1] and in data set [2] was 2 throughout.
Molecule “S. cerevisiae Gpi8 (23-337aa) (from UniProt P49018 23-337) (domain or fragment)” registered a stoichiometry N in data set [3] of 2.

B1: S. cerevisiae Gpi8 (23-379aa) C373A (domain or fragment, UniProt P49018 23-379, looked up)
chain: NNTDAAHEVIATNTNNWAVLVSTSRFWFNYRHMANVLSMYRTVKRLGIPDSQIILMLSDDVACNSRNLFPGSVFNNKDHAIDLYGDSVEVDYRGYEVTVENFIRLLTDRWTEDHPKSKRLLTDENSNIFIYMTGHGGDDFLKFQDAEEIASEDIADAFQQMYEKKRYNEIFFMIDTCQANTMYSKFYSPNILAVGSSEMDESSYSHHSDVEIGVAVIDRFTYYCLDFLEQIDKNSTLTLQDLFDSFTFEKIHSHVGVRTDLFDRNPSEVLITDFFANVQNVIPDDSKPLSVSHYHHYKDHIDTAQYELNNNVLDLALETYRKNNQSSKIEKKIKDIKSTSVLDVDIDSNEAFFTSFK
notes: S. cerevisiae Gpi8, full-length luminal construct, residues 23-379, with C373A; also called C373A mutant
B1: the “stoichiometry N” value in data set [4] is 2.

B2: S. cerevisiae Gpi8 (23-306aa), caspase-like domain, insect cell expressed (N-glycosylated) (domain or fragment, UniProt P49018 23-306, looked up)
chain: NNTDAAHEVIATNTNNWAVLVSTSRFWFNYRHMANVLSMYRTVKRLGIPDSQIILMLSDDVACNSRNLFPGSVFNNKDHAIDLYGDSVEVDYRGYEVTVENFIRLLTDRWTEDHPKSKRLLTDENSNIFIYMTGHGGDDFLKFQDAEEIASEDIADAFQQMYEKKRYNEIFFMIDTCQANTMYSKFYSPNILAVGSSEMDESSYSHHSDVEIGVAVIDRFTYYCLDFLEQIDKNSTLTLQDLFDSFTFEKIHSHVGVRTDLFDRNPSEVLITDFFANVQNVIPD
modifications: N-glycosylated (two predicted N-glycosylation sites in 23-306)
notes: The construct has an N-terminal gp67 signal peptide for secretion (pFastBac-dual); Runs as a disulfide-linked dimer; also called insect cell expressed Gpi8; not shown: 6xHis, C-terminal, kept
B2: the “stoichiometry N” value in data set [4] is 2.

B3: S. cerevisiae Gpi8 (23-306aa) C199A (domain or fragment, UniProt P49018 23-306, looked up)
chain: NNTDAAHEVIATNTNNWAVLVSTSRFWFNYRHMANVLSMYRTVKRLGIPDSQIILMLSDDVACNSRNLFPGSVFNNKDHAIDLYGDSVEVDYRGYEVTVENFIRLLTDRWTEDHPKSKRLLTDENSNIFIYMTGHGGDDFLKFQDAEEIASEDIADAFQQMYEKKRYNEIFFMIDTAQANTMYSKFYSPNILAVGSSEMDESSYSHHSDVEIGVAVIDRFTYYCLDFLEQIDKNSTLTLQDLFDSFTFEKIHSHVGVRTDLFDRNPSEVLITDFFANVQNVIPD
Consider B3, for which the “stoichiometry N” value in data set [4] worked out at 2.

B4: S. cerevisiae Gpi8 (23-306aa), insect cell expressed in the presence of tunicamycin (nonglycosylated) (domain or fragment, UniProt P49018 23-306, looked up)
chain: NNTDAAHEVIATNTNNWAVLVSTSRFWFNYRHMANVLSMYRTVKRLGIPDSQIILMLSDDVACNSRNLFPGSVFNNKDHAIDLYGDSVEVDYRGYEVTVENFIRLLTDRWTEDHPKSKRLLTDENSNIFIYMTGHGGDDFLKFQDAEEIASEDIADAFQQMYEKKRYNEIFFMIDTCQANTMYSKFYSPNILAVGSSEMDESSYSHHSDVEIGVAVIDRFTYYCLDFLEQIDKNSTLTLQDLFDSFTFEKIHSHVGVRTDLFDRNPSEVLITDFFANVQNVIPD
notes: N-terminal gp67 signal peptide in the construct; also called nonglycosylated Gpi8; insect cell expressed Gpi8 in the presence of tunicamycin
In the case of B4, the “stoichiometry N” value in data set [4] is 2.

B5: S. cerevisiae Gpi8 (23-306aa) C246A (domain or fragment, UniProt P49018 23-306, looked up)
chain: NNTDAAHEVIATNTNNWAVLVSTSRFWFNYRHMANVLSMYRTVKRLGIPDSQIILMLSDDVACNSRNLFPGSVFNNKDHAIDLYGDSVEVDYRGYEVTVENFIRLLTDRWTEDHPKSKRLLTDENSNIFIYMTGHGGDDFLKFQDAEEIASEDIADAFQQMYEKKRYNEIFFMIDTCQANTMYSKFYSPNILAVGSSEMDESSYSHHSDVEIGVAVIDRFTYYALDFLEQIDKNSTLTLQDLFDSFTFEKIHSHVGVRTDLFDRNPSEVLITDFFANVQNVIPD
notes: the methods print Cys244Ala
With B5, the “stoichiometry N” value in data set [4] came to 2.

B6: S. cerevisiae Gpi8 (23-306aa), E. coli SHuffle expressed (domain or fragment, UniProt P49018 23-306, looked up)
chain: NNTDAAHEVIATNTNNWAVLVSTSRFWFNYRHMANVLSMYRTVKRLGIPDSQIILMLSDDVACNSRNLFPGSVFNNKDHAIDLYGDSVEVDYRGYEVTVENFIRLLTDRWTEDHPKSKRLLTDENSNIFIYMTGHGGDDFLKFQDAEEIASEDIADAFQQMYEKKRYNEIFFMIDTCQANTMYSKFYSPNILAVGSSEMDESSYSHHSDVEIGVAVIDRFTYYCLDFLEQIDKNSTLTLQDLFDSFTFEKIHSHVGVRTDLFDRNPSEVLITDFFANVQNVIPD
notes: Same construct as m12, other E. coli strain (constitutively expresses DsbC); also called E. coli Shuffle-expressed Gpi8
Take B6: the “stoichiometry N” value in data set [4] turned out to be 2.

B7: S. cerevisiae Gpi8 (23-306aa), E. coli BL21 expressed (domain or fragment, UniProt P49018 23-306, looked up)
chain: NNTDAAHEVIATNTNNWAVLVSTSRFWFNYRHMANVLSMYRTVKRLGIPDSQIILMLSDDVACNSRNLFPGSVFNNKDHAIDLYGDSVEVDYRGYEVTVENFIRLLTDRWTEDHPKSKRLLTDENSNIFIYMTGHGGDDFLKFQDAEEIASEDIADAFQQMYEKKRYNEIFFMIDTCQANTMYSKFYSPNILAVGSSEMDESSYSHHSDVEIGVAVIDRFTYYCLDFLEQIDKNSTLTLQDLFDSFTFEKIHSHVGVRTDLFDRNPSEVLITDFFANVQNVIPD
notes: Cloned into NdeI-XhoI sites of pET26a (so in the source); also called E. coli expressed Gpi8
As to B7, the “stoichiometry N” value in data set [4] is 2.

B8: S. cerevisiae Gpi8 (23-359aa) (domain or fragment, UniProt P49018 23-359, looked up)
chain: NNTDAAHEVIATNTNNWAVLVSTSRFWFNYRHMANVLSMYRTVKRLGIPDSQIILMLSDDVACNSRNLFPGSVFNNKDHAIDLYGDSVEVDYRGYEVTVENFIRLLTDRWTEDHPKSKRLLTDENSNIFIYMTGHGGDDFLKFQDAEEIASEDIADAFQQMYEKKRYNEIFFMIDTCQANTMYSKFYSPNILAVGSSEMDESSYSHHSDVEIGVAVIDRFTYYCLDFLEQIDKNSTLTLQDLFDSFTFEKIHSHVGVRTDLFDRNPSEVLITDFFANVQNVIPDDSKPLSVSHYHHYKDHIDTAQYELNNNVLDLALETYRKNNQSSKIEKKIKDIK
notes: S. cerevisiae Gpi8, C-terminal truncation of the luminal domain, residues 23-359; also called S. cerevisiae Gpi8 (23-359aa)^BL21
On to B8, for which the “stoichiometry N” value in data set [4] was 2.

In general, stoichiometry N refers to a count of units in the complex or per binding partner.
